Target: human ubiquitin (human) (UniProt P0CG48)
Assay: NMR titration

Question: For “WT spartin 155-367 (GST tag removed) (from UniProt Q8N0X7 155-367) (domain or fragment)”, which Kd is on record?
Answer: < 10 µM
